These results are taken from PMC3601739 (Chemical communications (Cambridge, England), 2013).

For data set [1], the target named is HIV-1 RRE IIB RNA. As to the kind of experiment: Dot blot assay, 32P-labeled RRE IIB titrated with BPBAs. Type of data set: binding. The note with it: read-out: Kd (dissociation constant), 32P-labeled RRE IIB titrated with increasing concentration of peptide, average of at least three experiments.
Data set [2] addresses HIV-1 RRE IIB RNA. Put plainly: Electrophoretic mobility shift assay. The class given is binding. The note with it: read-out: Kd (dissociation constant) determined through EMSA; EMSA with RRE IIB. On the technique in general: A gel shift assay detects complexes by their altered migration in electrophoresis.
In data set [3] the test system is BPBA1 (synthetic). Put plainly: EMSA. The conditions noted are these: not stated in the material (details in ESI).
The subject of data set [4] is BPBA2 (synthetic). Put plainly: EMSA. The conditions noted are these: not stated in the material (details in ESI).
The test system of data set [5] is BPBA3 (synthetic). As to the kind of experiment: EMSA. The conditions noted are these: not stated in the material (details in ESI).
The test system of data set [6] is BPBA1 (synthetic). Put plainly: dot blot. The conditions noted are these: not stated in the material (details in ESI).
The next data set relates to BPBA7 (synthetic). As to the kind of experiment: dot blot. The note with it: not stated in the material (details in ESI).
For another data set, the system named is BPBA1.2 (synthetic). Put plainly: dot blot. The note with it: not stated in the material (details in ESI).
Another data set has as its system BPBA8 (synthetic). Put plainly: dot blot. The note with it: not stated in the material (details in ESI).
The next data set relates to BPBA6 (synthetic). As to the kind of experiment: dot blot. The conditions noted are these: not stated in the material (details in ESI).
A further data set relates to BPBA4 (synthetic). Put plainly: dot blot. The note with it: not stated in the material (details in ESI).
Data set [7] has as its system BPBA2 (synthetic). As to the kind of experiment: dot blot. The note with it: not stated in the material (details in ESI).
Data set [8] has as its system BPBA3 (synthetic). As to the kind of experiment: dot blot. The conditions noted are these: not stated in the material (details in ESI).
The subject of the next data set is BPBA5 (synthetic). Put plainly: dot blot. The conditions noted are these: not stated in the material (details in ESI).

For (FBPAYFBPA)2 * NKSY [BPBA3], the Kd on HIV-1 RRE IIB RNA [1] came to 8.7 ± 2.3 µM; at HIV-1 RRE IIB RNA [2], 4.6 ± 2.4 µM.
Consider HIV-1 RRE IIB RNA, for which the Kd was 0.3 µM with BPBA1 (synthetic) [3]; 0.6 µM in the data set with BPBA2 (synthetic) [4]; 4.6 µM in the data set on BPBA3 (synthetic) [5]; 1.4 µM in the data set with BPBA1 (synthetic) [6]; 58.4 µM in the data set on BPBA7 (synthetic); 0.8 µM in the data set with BPBA1.2 (synthetic). Moreover, the Kd with BPBA8 (synthetic) came to 86.5 µM; in the data set on BPBA6 (synthetic) it was 28.5 µM; in the data set with BPBA4 (synthetic), 26.8 µM; with BPBA2 (synthetic) [7] it was 3.3 µM; in the data set with BPBA3 (synthetic) [8], 8.7 µM; in the data set with BPBA5 (synthetic), 27.2 µM.
Turning to (KKBBAF)2 * KKWY [BPBA5], the Kd at HIV-1 RRE IIB RNA [1] worked out at 27.2 ± 6.9 µM.
For the substance (WKK)2 * KBBAYWY [BPBA1], on HIV-1 RRE IIB RNA [1], the Kd was 1.4 ± 0.4 µM.
As for (KKBBAK)2 * KLKY [BPBA7], on HIV-1 RRE IIB RNA [1], the Kd is 58.4 ± 4 µM.
The same measure, in the same setting: for (KBBAYK)2 * HKKY [BPBA8] the value was 86.5 ± 10 µM; for (KKKBBA)2 * FBPATSY [BPBA4], 26.8 ± 4.4 µM.
Same read-out and setting: the same measure for (KBBAKFBPA)2 * KBBAKKY [BPBA2]: 3.3 ± 1.2 µM.
